According to patent US8748480B2, “Methods for treating opioid tolerance” (priority 2005, dated 2014):

Legend:
Assay type in all cases: binding
Gβ1γ2 His311Ala = biological target: T1, Gβ1γ2 His311Ala (Rattus norvegicus, UniProt P54311, H311A); test: Phage ELISA, b-βγ mutant His311Ala; settings: alanine-substituted His311, Indirect; mean ± SD
T1 construct: made in house; host or cells: Sf9 insect cells (baculovirus)
Text: (§1) Wild-type Gβ1 and Gβ1 mutants were made in the baculovirus vector PDW464 which encodes a biotinylation site at a lysine upstream of the amino terminus of Gβ1 (Goubaeva, et al. (2003) supra). Mutants were generated by overlap extension PCR using standard protocols. The wild-type and mutant Gβ1 constructs consisted of a 20 amino acid biotin acceptor peptide (BAP) sequence fused in-frame with the amino-terminus of rat Gβ1 subunit. When coexpressed with biotin holoenzyme synthetase (BirA) in Sf9 cells, the Gβ1 subunit becomes covalently biotinylated in vivo at the Specific lysine acceptor residue in the BAP. Using this approach, 1-2 mg protein of purified protein can be obtained per liter of Sf9 insect cells. As 45 ng of protein is used in the phage ELISA assay, a single purification is sufficient for 10,000 to 30,000 binding assays.
(§2) Phage ELISA assays used to assess peptide binding to wild-type and mutant b-βγ were performed according to standard methods (Smrcka and Scott (2002) Methods Enzymol. 344:557-76). Briefly, 1 μg streptavidin was immobilized in the well of a […] overnight at 4° C. The wells were blocked with 100 μL of 2% bovine serum albumin (BSA) in Tris-buffered saline (TBS) for 1 hour at 4° C. followed by three washes of 1×TBS/0.5% TWEEN®. Forty μL of 25 nM bGβ1γ2 in TBS/0.5% TWEEN® was added to each well and incubated at 4° C. for 1.5 hour. The wells were washed, followed by the addition of 1×10^6 to 1×10^10 phage particles and incubated at 4° C. for 3 hours. The wells were then washed six times with TBS/0.5% TWEEN® followed by addition of 40 μL of 1:5000 dilution of anti-M13 antibody (Pharmacia, Uppsala, Sweden) and incubated at room temperature for 1 hour. The wells were washed, followed by the addition of 40 μL of (2,2′-Azino-bis(3-ethylbenzthiazoline)-6-sulfonic acid (ABTS) and the colorimetric reaction was monitored at 405 nm. Non-specific binding was subtracted for each reading.
(§3) Both assays were then carried out with Gβ1γ2 heterodimers containing mutations in the Gβ1 subunit.
(§4) The nine peptides were selected to represent the different consensus groups of peptides previously identified (See Scott et al. (2001) supra; Table 9) and to compare binding characteristics within and between consensus groups. […] As disclosed herein, the binding signal obtained in the ELISA assay was correlated to a loss in affinity by comparing the results to behavior of the peptide in a solution based assay. […] For the purposes of present disclosure, any substitution that decreased the binding to less than 20% of the wild-type binding was considered to be a critical binding contact for that peptide.

Gβ1γ2 Met101Ala = biological target: T2, Gβ1γ2 Met101Ala (Rattus norvegicus, UniProt P54311, M101A); test: Phage ELISA, b-βγ mutant Met101Ala; settings: alanine-substituted Met101, C-Terminal Interface; mean ± SD
T2 construct: made in house; host or cells: Sf9 insect cells (baculovirus)
T2 sequence (P54311 whole entry M101A): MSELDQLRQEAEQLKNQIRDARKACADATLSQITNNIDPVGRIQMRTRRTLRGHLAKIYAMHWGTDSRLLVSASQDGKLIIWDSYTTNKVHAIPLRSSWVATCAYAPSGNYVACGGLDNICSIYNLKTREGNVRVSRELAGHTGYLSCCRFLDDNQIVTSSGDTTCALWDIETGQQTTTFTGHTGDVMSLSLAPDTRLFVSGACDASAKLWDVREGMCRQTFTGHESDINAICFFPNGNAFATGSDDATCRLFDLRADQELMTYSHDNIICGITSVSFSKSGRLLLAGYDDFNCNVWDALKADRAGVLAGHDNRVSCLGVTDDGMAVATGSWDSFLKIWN
T2 sequence (P63212 2-68 partner limits assumed): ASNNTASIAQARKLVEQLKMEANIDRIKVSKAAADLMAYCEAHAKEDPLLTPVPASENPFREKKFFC
Text: as §1, §2, §3, §4

Gβ1γ2 Tyr59Ala = biological target: T3, Gβ1γ2 Tyr59Ala (Rattus norvegicus, UniProt P54311, Y59A); test: Phage ELISA, b-βγ mutant Tyr59Ala; settings: alanine-substituted Tyr59, C-Terminal Interface; mean ± SD
T3 construct: made in house; host or cells: Sf9 insect cells (baculovirus)
T3 sequence (P54311 whole entry Y59A): as the sequence (P54311 whole entry M101A) above, with Y59A, A101M counted along it
T3 sequence (P63212 2-68 partner limits assumed): as the sequence (P63212 2-68 partner limits assumed) above
Text: as §1, with “BAP.” for “BAP. Using this approach, 1-2 mg protein of purified protein can be obtained per liter of Sf9 insect cells. As 45 ng of protein is used in the phage ELISA assay, a single purification is sufficient for 10,000 to 30,000 binding assays.”
as §2, with “Forty μL of 25 nM bGβ1γ2 in TBS/0.5% TWEEN® was added to each well and incubated at 4° C. for 1.5 hour.” left out
as §3
The nine peptides were selected to represent the different consensus groups of peptides previously identified (See Scott et al. (2001) supra; Table 9) and to compare binding characteristics within and between consensus groups. […] For the purposes of present disclosure, any substitution that decreased the binding to less than 20% of the wild-type binding was considered to be a critical binding contact for that peptide.

Gβ1γ2 Met188Ala = biological target: T4, Gβ1γ2 Met188Ala (Rattus norvegicus, UniProt P54311, M188A); test: Phage ELISA, b-βγ mutant Met188Ala; settings: alanine-substituted Met188, Shared; mean ± SD
T4 construct: made in house; host or cells: Sf9 insect cells (baculovirus)
T4 sequence (P54311 whole entry M188A): as the sequence (P54311 whole entry M101A) above, with A101M, M188A counted along it
T4 sequence (P63212 2-68 partner limits assumed): as the sequence (P63212 2-68 partner limits assumed) above
Text: as §1, §2, §3, §4

Gβ1γ2 Arg314Ala = biological target: T5, Gβ1γ2 Arg314Ala (Rattus norvegicus, UniProt P54311, R314A); test: Phage ELISA, b-βγ mutant Arg314Ala; settings: alanine-substituted Arg314, Indirect; mean ± SD
T5 construct: made in house; host or cells: Sf9 insect cells (baculovirus)
T5 sequence (P54311 whole entry R314A): as the sequence (P54311 whole entry M101A) above, with A101M, R314A counted along it
T5 sequence (P63212 2-68 partner limits assumed): as the sequence (P63212 2-68 partner limits assumed) above
Text: as §1, §2, §3, §4

Gβ1γ2 Lys57Ala = biological target: T6, Gβ1γ2 Lys57Ala (Rattus norvegicus, UniProt P54311, K57A); test: Phage ELISA, b-βγ mutant Lys57Ala; settings: alanine-substituted Lys57, C-Terminal Interface; mean ± SD
T6 construct: made in house; host or cells: Sf9 insect cells (baculovirus)
T6 sequence (P54311 whole entry K57A): as the sequence (P54311 whole entry M101A) above, with K57A, A101M counted along it
T6 sequence (P63212 2-68 partner limits assumed): as the sequence (P63212 2-68 partner limits assumed) above
Text: as §1, §2, §3, §4

Gβ1γ2 Asp246Ser = biological target: T7, Gβ1γ2 Asp246Ser (Rattus norvegicus, UniProt P54311, D246S); test: Phage ELISA, b-βγ mutant Asp246Ser; settings: Asp246 mutant (Asp246Ser), N-Terminal Interface; mean ± SD
T7 construct: made in house; host or cells: Sf9 insect cells (baculovirus)
T7 sequence (P54311 whole entry D246S): as the sequence (P54311 whole entry M101A) above, with A101M, D246S counted along it
T7 sequence (P63212 2-68 partner limits assumed): as the sequence (P63212 2-68 partner limits assumed) above
Text: as §1, §2, §3, §4

Gβ1γ2 Trp332Ala = biological target: T8, Gβ1γ2 Trp332Ala (Rattus norvegicus, UniProt P54311, W332A); test: Phage ELISA, b-βγ mutant Trp332Ala; settings: alanine-substituted Trp332, C-Terminal Interface; mean ± SD
T8 construct: made in house; host or cells: Sf9 insect cells (baculovirus)
T8 sequence (P54311 whole entry W332A): as the sequence (P54311 whole entry M101A) above, with A101M, W332A counted along it
T8 sequence (P63212 2-68 partner limits assumed): as the sequence (P63212 2-68 partner limits assumed) above
Text: as §1, §2, §3, §4

Gβ1γ2 Trp99Ala = biological target: T9, Gβ1γ2 Trp99Ala (Rattus norvegicus, UniProt P54311, W99A); test: Phage ELISA, b-βγ mutant Trp99Ala; settings: alanine-substituted Trp99, C-Terminal Interface; mean ± SD
T9 construct: made in house; host or cells: Sf9 insect cells (baculovirus)
T9 sequence (P54311 whole entry W99A): as the sequence (P54311 whole entry M101A) above, with W99A, A101M counted along it
T9 sequence (P63212 2-68 partner limits assumed): as the sequence (P63212 2-68 partner limits assumed) above
Text: as §1, §2, §3, §4

Gβ1γ2 Leu117Ala = biological target: T10, Gβ1γ2 Leu117Ala (Rattus norvegicus, UniProt P54311, L117A); test: Phage ELISA, b-βγ mutant Leu117Ala; settings: alanine-substituted Leu117, C-Terminal Interface; mean ± SD
T10 construct: made in house; host or cells: Sf9 insect cells (baculovirus)
T10 sequence (P54311 whole entry L117A): as the sequence (P54311 whole entry M101A) above, with A101M, L117A counted along it
T10 sequence (P63212 2-68 partner limits assumed): as the sequence (P63212 2-68 partner limits assumed) above
Text: as §1, §2, §3, §4

Gβ1γ2 Asn230Ala = biological target: T11, Gβ1γ2 Asn230Ala (Rattus norvegicus, UniProt P54311, N230A); test: Phage ELISA, b-βγ mutant Asn230Ala; settings: alanine-substituted Asn230, N-Terminal Interface; mean ± SD
T11 construct: made in house; host or cells: Sf9 insect cells (baculovirus)
T11 sequence (P54311 whole entry N230A): as the sequence (P54311 whole entry M101A) above, with A101M, N230A counted along it
T11 sequence (P63212 2-68 partner limits assumed): as the sequence (P63212 2-68 partner limits assumed) above
Text: as §1, §2, §3, §4

Gβ1γ2 Tyr145Ala = biological target: T12, Gβ1γ2 Tyr145Ala (Rattus norvegicus, UniProt P54311, Y145A); test: Phage ELISA, b-βγ mutant Tyr145Ala; settings: alanine-substituted Tyr145, N-Terminal Interface; mean ± SD
T12 construct: made in house; host or cells: Sf9 insect cells (baculovirus)
T12 sequence (P54311 whole entry Y145A): as the sequence (P54311 whole entry M101A) above, with A101M, Y145A counted along it
T12 sequence (P63212 2-68 partner limits assumed): as the sequence (P63212 2-68 partner limits assumed) above
Text: as §1, §2, §3, §4

Gβ1γ2 Asp186Ala = biological target: T13, Gβ1γ2 Asp186Ala (Rattus norvegicus, UniProt P54311, D186A); test: Phage ELISA, b-βγ mutant Asp186Ala; settings: alanine-substituted Asp186, N-Terminal Interface; mean ± SD
T13 construct: made in house; host or cells: Sf9 insect cells (baculovirus)
T13 sequence (P54311 whole entry D186A): as the sequence (P54311 whole entry M101A) above, with A101M, D186A counted along it
T13 sequence (P63212 2-68 partner limits assumed): as the sequence (P63212 2-68 partner limits assumed) above
Text: as §1, §2, §3, §4

T1 sequence (P54311 whole entry H311A): as the sequence (P54311 whole entry M101A) above, with A101M, H311A counted along it
T1 sequence (P63212 2-68 partner limits assumed): as the sequence (P63212 2-68 partner limits assumed) above

Sequence | % of Wild-Type Signal, His311 (Gβ1γ2 His311Ala) [%] | % of Wild-Type Signal, Met101 (Gβ1γ2 Met101Ala) [%] | % of Wild-Type Signal, Tyr59 (Gβ1γ2 Tyr59Ala) [%] | % of Wild-Type Signal, Met188 (Gβ1γ2 Met188Ala) [%] | % of Wild-Type Signal, Arg314 (Gβ1γ2 Arg314Ala) [%] | % of Wild-Type Signal, Lys57 (Gβ1γ2 Lys57Ala) [%] | % of Wild-Type Signal, Asp246 (Gβ1γ2 Asp246Ser) [%] | % of Wild-Type Signal, Trp332 (Gβ1γ2 Trp332Ala) [%] | % of Wild-Type Signal, Trp99 (Gβ1γ2 Trp99Ala) [%] | % of Wild-Type Signal, Leu117 (Gβ1γ2 Leu117Ala) [%] | % of Wild-Type Signal, Asn230 (Gβ1γ2 Asn230Ala) [%] | % of Wild-Type Signal, Tyr145 (Gβ1γ2 Tyr145Ala) [%] | % of Wild-Type Signal, Asp186 (Gβ1γ2 Asp186Ala) [%]
LCSKAYLLLGQTC [2F] | 23.6 ± 46.0 | 6.0 ± 5.1 | −2.0 ± 9.5 | 8.5 ± 5.2 | 2.4 ± 3.9 | −4.5 ± 6.2 | 0.6 ± 2.5 | −1.5 ± 3.6 | 32.6 ± 26.3 | 2.1 ± 5.5 | 27.6 ± 19.1 | 0.1 ± 6.5 | 2.4 ± 3.5
SCEKRLGVRSCT [C5] | 58.7 ± 14.4 | 47.8 ± 18.9 | 73.8 ± 16.6 | 97.2 ± 14.2 | 76.5 ± 6.7 | 5.6 ± 5.3 | 56.3 ± 4.1 | 3.2 ± 3.7 | 39.0 ± 3.8 | 28.5 ± 5.2 | 33.5 ± 7.2 | 16.7 ± 4.8 | 45.7 ± 5.2
SCEKRYGIEFCT [C4] | 36.5 ± 8.3 | 61.2 ± 30.9 | 7.6 ± 9.6 | 127.5 ± 22.4 | 1.4 ± 1.0 | −0.2 ± 1.9 | 35.8 ± 7.4 | 1.7 ± 3.0 | 67.0 ± 15.2 | 18.4 ± 7.1 | 11.5 ± 6.0 | 4.4 ± 3.8 | 51.3 ± 15.0
SCGHGLKVQSTIGACA [3C] | 30.5 ± 18.9 | −4.2 ± 5.5 | 8.5 ± 6.4 | −5.7 ± 5.6 | 8.3 ± 3.6 | 3.6 ± 7.5 | 2.0 ± 2.7 | −0.3 ± 1.7 | −0.5 ± 5.9 | 10 ± 13.3 | 4.1 ± 4.4 | 2.7 ± 10.5 | 35.0 ± 17.2
SCKRTKAQILLAPCT [C1] | 3.0 ± 4.0 | 70.5 ± 35.3 | 0.3 ± 0.7 | 4.0 ± 3.4 | 2.8 ± 1.6 | 0.1 ± 1.6 | 2.3 ± 3.0 | −0.3 ± 2.5 | 1.2 ± 2.7 | 5.2 ± 3.1 | 19.8 ± 12.3 | 88.0 ± 29.9 | 1.4 ± 1.7
SIGKALFILGYPDYD [3.14] | 93.4 ± 21.5 | 26.8 ± 12.5 | 24.7 ± 15.2 | 2.5 ± 3.7 | 50.2 ± 5.0 | 18.6 ± 4.6 | 66.5 ± 7.5 | 7.1 ± 3.7 | 66.0 ± 7.7 | 2.1 ± 2.4 | 22.4 ± 4.2 | 0.8 ± 0.9 | 14.4 ± 13.4
